Laboratory results taken from article PMC7385124, “The molecular basis of thioalcohol production in human body odour” (Scientific Reports, 2020).

Target: the molecule itself
Assay: crystal structure; BsPatB, sitting drop, 0.2 M ammonium acetate pH 7.1, 20% PEG 3,350

B1: Bacillus subtilis 168 PatB (PLP-bound C-S lyase) (enzyme)
chain: MGGGFAMNFDKREERLGTQSVKWDKTGELFGVTDALPMWVADMDFRAPEAITEALKERLDHGIFGYTTPDQKTKDAVCGWMQNRHGWKVNPESITFSPGVVTALSMAVQAFTEPGDQVVVQPPVYTPFYHMVEKNGRHILHNPLLEKDGAYAIDFEDLETKLSDPSVTLFILCNPHNPSGRSWSREDLLKLGELCLEHGVTVVSDEIHSDLMLYGHKHTPFASLSDDFADISVTCAAPSKTFNIAGLQASAIIIPDRLKRAKFSASLQRNGLGGLNAFAVTAIEAAYSKGGPWLDELITYIEKNMNEAEAFLSTELPKVKMMKPDASYLIWLDFSAYGLSDAELQQRMLKKGKVILEPGTKYGPGGEGFMRLNAGCSLATLQDGLRRIKAALSENLYFQG
modifications: PLP covalently bound to Lys234 (internal aldimine)
notes: N-terminal overhang from cloning into pBADcLIC; PatB (C-S lyase, cystathionine beta-lyase activity) of Bacillus subtilis 168, full-length gene; C-terminal linker of the vector before the His10 tag; also called BsPatB; source: E. coli MC1061, pBADcLIC, purified (HisTrap)
stoichiometry N: 2
